Measurements published in paper PMC12102759 (2025).

B1: NOTCH4 peptide 1606-1621 (Neurogenic locus notch homolog protein 4), 16-mer library wild type / NSP9 (ORF1ab Nsp9, residues 4141-4253) (parent complex)
chain 1: QGAWLGAPEPWEPLLD
chain 2: NNELSPVALRQMSCAAGTTQTACTDDNALAYYNTTKGGRFVLALLSDLQDLKWARFPKSDGTGTIYTELEPPCRFVTDTPKGPKVKYLYFIKGLNNLNRGMVLGSLAATVRLQ
B2: AZIN2 peptide 1-16 (Antizyme inhibitor 2), 16-mer library wild type / NSP3 ADRP (ORF1ab Nsp3b ADRP, residues 1023-1192) (parent complex)
chain 1: MAGYLSESDFVMVEEG
chain 2: not shown

Variants of: B1
Assay: bait immobilised on MaxiSorp plates (10 µg), library pre-cleared on GST, 2 h binding at 4 °C, five washes; one round per day, days 1-4; value from days 2 and 3

Variant	screen value
chain 1 L15K	0.00133 average fractional NGS count over selection days 2 and 3 (reads of this peptide / all reads for the bait, averaged over …
chain 1 L15R	0.000322 average fractional NGS count over selection days 2 and 3 (reads of this peptide / all reads for the bait, averaged over …
chain 1 L15D	0.000339 average fractional NGS count over selection days 2 and 3 (reads of this peptide / all reads for the bait, averaged over …
chain 1 L15A	0.00794 average fractional NGS count over selection days 2 and 3 (reads of this peptide / all reads for the bait, averaged over …
chain 1 L15F	0.000114 average fractional NGS count over selection days 2 and 3 (reads of this peptide / all reads for the bait, averaged over …
chain 1 L15T	0.00153 average fractional NGS count over selection days 2 and 3 (reads of this peptide / all reads for the bait, averaged over …
chain 1 L15P	0.000417 average fractional NGS count over selection days 2 and 3 (reads of this peptide / all reads for the bait, averaged over …
chain 1 L15N	0.00024 average fractional NGS count over selection days 2 and 3 (reads of this peptide / all reads for the bait, averaged over …
chain 1 L15I	0.0135 average fractional NGS count over selection days 2 and 3 (reads of this peptide / all reads for the bait, averaged over …
chain 1 A7Q	0.00107 average fractional NGS count over selection days 2 and 3 (reads of this peptide / all reads for the bait, averaged over …
chain 1 A7H	0.0144 average fractional NGS count over selection days 2 and 3 (reads of this peptide / all reads for the bait, averaged over …
chain 1 A7S	0.00083 average fractional NGS count over selection days 2 and 3 (reads of this peptide / all reads for the bait, averaged over …
chain 1 A7W	0.000255 average fractional NGS count over selection days 2 and 3 (reads of this peptide / all reads for the bait, averaged over …
chain 1 A7E	0.000192 average fractional NGS count over selection days 2 and 3 (reads of this peptide / all reads for the bait, averaged over …
chain 1 A7D	0.00053 average fractional NGS count over selection days 2 and 3 (reads of this peptide / all reads for the bait, averaged over …
chain 1 A7P	0.000551 average fractional NGS count over selection days 2 and 3 (reads of this peptide / all reads for the bait, averaged over …
chain 1 A7T	0.00295 average fractional NGS count over selection days 2 and 3 (reads of this peptide / all reads for the bait, averaged over …
chain 1 A7L	0.000927 average fractional NGS count over selection days 2 and 3 (reads of this peptide / all reads for the bait, averaged over …
chain 1 A7V	0.00673 average fractional NGS count over selection days 2 and 3 (reads of this peptide / all reads for the bait, averaged over …
chain 1 A7Y	0.000616 average fractional NGS count over selection days 2 and 3 (reads of this peptide / all reads for the bait, averaged over …
chain 1 A7G	0.00198 average fractional NGS count over selection days 2 and 3 (reads of this peptide / all reads for the bait, averaged over …
chain 1 A7R	0.000186 average fractional NGS count over selection days 2 and 3 (reads of this peptide / all reads for the bait, averaged over …
chain 1 Q1D	0.000709 average fractional NGS count over selection days 2 and 3 (reads of this peptide / all reads for the bait, averaged over …
chain 1 Q1T	0.000204 average fractional NGS count over selection days 2 and 3 (reads of this peptide / all reads for the bait, averaged over …
chain 1 Q1M	0.00503 average fractional NGS count over selection days 2 and 3 (reads of this peptide / all reads for the bait, averaged over …
chain 1 Q1N	0.00294 average fractional NGS count over selection days 2 and 3 (reads of this peptide / all reads for the bait, averaged over …
chain 1 Q1L	0.000598 average fractional NGS count over selection days 2 and 3 (reads of this peptide / all reads for the bait, averaged over …

Variant	screen value
chain 1 Q1W	0.000692 average fractional NGS count over selection days 2 and 3 (reads of this peptide / all reads for the bait, averaged over …
chain 1 Q1Y	0.00151 average fractional NGS count over selection days 2 and 3 (reads of this peptide / all reads for the bait, averaged over …
chain 1 Q1E	0.00488 average fractional NGS count over selection days 2 and 3 (reads of this peptide / all reads for the bait, averaged over …
chain 1 Q1F	0.000338 average fractional NGS count over selection days 2 and 3 (reads of this peptide / all reads for the bait, averaged over …
chain 1 Q1A	0.00674 average fractional NGS count over selection days 2 and 3 (reads of this peptide / all reads for the bait, averaged over …
chain 1 Q1H	0.000824 average fractional NGS count over selection days 2 and 3 (reads of this peptide / all reads for the bait, averaged over …
chain 1 Q1I	0.000162 average fractional NGS count over selection days 2 and 3 (reads of this peptide / all reads for the bait, averaged over …
chain 1 W4Y	0.000452 average fractional NGS count over selection days 2 and 3 (reads of this peptide / all reads for the bait, averaged over …
chain 1 E9Q	0.000696 average fractional NGS count over selection days 2 and 3 (reads of this peptide / all reads for the bait, averaged over …
chain 1 E9N	0.000953 average fractional NGS count over selection days 2 and 3 (reads of this peptide / all reads for the bait, averaged over …
chain 1 E9A	0.000237 average fractional NGS count over selection days 2 and 3 (reads of this peptide / all reads for the bait, averaged over …
chain 1 E9W	0.00272 average fractional NGS count over selection days 2 and 3 (reads of this peptide / all reads for the bait, averaged over …
chain 1 E9I	0.00116 average fractional NGS count over selection days 2 and 3 (reads of this peptide / all reads for the bait, averaged over …
chain 1 E9K	0.000266 average fractional NGS count over selection days 2 and 3 (reads of this peptide / all reads for the bait, averaged over …
chain 1 E9G	0.00198 average fractional NGS count over selection days 2 and 3 (reads of this peptide / all reads for the bait, averaged over …
chain 1 E9P	0.00127 average fractional NGS count over selection days 2 and 3 (reads of this peptide / all reads for the bait, averaged over …
chain 1 E9T	0.00217 average fractional NGS count over selection days 2 and 3 (reads of this peptide / all reads for the bait, averaged over …
chain 1 E9L	0.0321 average fractional NGS count over selection days 2 and 3 (reads of this peptide / all reads for the bait, averaged over …
chain 1 E9Y	0.000233 average fractional NGS count over selection days 2 and 3 (reads of this peptide / all reads for the bait, averaged over …
chain 1 A3W	0.000101 average fractional NGS count over selection days 2 and 3 (reads of this peptide / all reads for the bait, averaged over …
chain 1 A3M	0.0101 average fractional NGS count over selection days 2 and 3 (reads of this peptide / all reads for the bait, averaged over …
chain 1 A3F	0.00137 average fractional NGS count over selection days 2 and 3 (reads of this peptide / all reads for the bait, averaged over …
chain 1 A3T	0.00113 average fractional NGS count over selection days 2 and 3 (reads of this peptide / all reads for the bait, averaged over …
chain 1 A3Y	0.00272 average fractional NGS count over selection days 2 and 3 (reads of this peptide / all reads for the bait, averaged over …
chain 1 A3Q	0.000713 average fractional NGS count over selection days 2 and 3 (reads of this peptide / all reads for the bait, averaged over …
chain 1 A3I	0.00198 average fractional NGS count over selection days 2 and 3 (reads of this peptide / all reads for the bait, averaged over …

Variants of: B2
Assay: as above

Variant	screen value
chain 1 E15D	9.82e-05 average fractional NGS count over selection days 2 and 3 (reads of this peptide / all reads for the bait, averaged over …
chain 1 M12N	0.00321 average fractional NGS count over selection days 2 and 3 (reads of this peptide / all reads for the bait, averaged over …
chain 1 M12S	0.000927 average fractional NGS count over selection days 2 and 3 (reads of this peptide / all reads for the bait, averaged over …
chain 1 M12A	0.00221 average fractional NGS count over selection days 2 and 3 (reads of this peptide / all reads for the bait, averaged over …
chain 1 V13H	0.00368 average fractional NGS count over selection days 2 and 3 (reads of this peptide / all reads for the bait, averaged over …
chain 1 V13M	0.000618 average fractional NGS count over selection days 2 and 3 (reads of this peptide / all reads for the bait, averaged over …
chain 1 E14P	0.0011 average fractional NGS count over selection days 2 and 3 (reads of this peptide / all reads for the bait, averaged over …
chain 1 E14N	0.000346 average fractional NGS count over selection days 2 and 3 (reads of this peptide / all reads for the bait, averaged over …
chain 1 E14Q	0.00039 average fractional NGS count over selection days 2 and 3 (reads of this peptide / all reads for the bait, averaged over …
chain 1 E14S	0.000258 average fractional NGS count over selection days 2 and 3 (reads of this peptide / all reads for the bait, averaged over …
chain 1 G16F	0.000171 average fractional NGS count over selection days 2 and 3 (reads of this peptide / all reads for the bait, averaged over …
chain 1 G16E	0.000344 average fractional NGS count over selection days 2 and 3 (reads of this peptide / all reads for the bait, averaged over …
chain 1 G16A	0.00182 average fractional NGS count over selection days 2 and 3 (reads of this peptide / all reads for the bait, averaged over …
chain 1 G16S	0.000137 average fractional NGS count over selection days 2 and 3 (reads of this peptide / all reads for the bait, averaged over …
chain 1 G16H	0.000328 average fractional NGS count over selection days 2 and 3 (reads of this peptide / all reads for the bait, averaged over …
chain 1 G3D	0.00677 average fractional NGS count over selection days 2 and 3 (reads of this peptide / all reads for the bait, averaged over …
chain 1 G3Q	0.000537 average fractional NGS count over selection days 2 and 3 (reads of this peptide / all reads for the bait, averaged over …
chain 1 G3K	0.00086 average fractional NGS count over selection days 2 and 3 (reads of this peptide / all reads for the bait, averaged over …
chain 1 G3M	0.000375 average fractional NGS count over selection days 2 and 3 (reads of this peptide / all reads for the bait, averaged over …
chain 1 V11E	0.000156 average fractional NGS count over selection days 2 and 3 (reads of this peptide / all reads for the bait, averaged over …
chain 1 V11H	7.39e-05 average fractional NGS count over selection days 2 and 3 (reads of this peptide / all reads for the bait, averaged over …
chain 1 V11T	0.000107 average fractional NGS count over selection days 2 and 3 (reads of this peptide / all reads for the bait, averaged over …
